Measurements from US20200283478A1 (Genentech, published 2020).
“And” between values parts separate entries of the source, which are not always exact repeats. Equal entries are not always repeated. Bridge positions count the residues as written; N and C are the ends. Square brackets hold non-standard residues; d marks the D form. Cit = NC(=O)NCCC[C@H](N)C(=O)O; Ava = NCCCCC(=O)O

How the values were obtained:
[1] = biological target: T1, His-tagged, full-length PCSK9 (human, UniProt Q8NBP7 31-692); test: TR-FRET competition (PCSK9/EGF(A) assay); competitor EGF(A)-Fc;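 also: proximity signal from anti-His APC on PCSK9 paired with anti-Fc europium on the Fc ligand, read as normalized TR-FRET ratio across compound dilutions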
T1 construct: secreted PCSK9 is autocatalytically cleaved into prodomain and catalytic domain + CRD (from S153), which stay associated; also called His-PCSK9; proprotein convertase subtilisin/kexin type 9; not shown: His tag
T1 sequence (Q8NBP7 31-692 limits assumed): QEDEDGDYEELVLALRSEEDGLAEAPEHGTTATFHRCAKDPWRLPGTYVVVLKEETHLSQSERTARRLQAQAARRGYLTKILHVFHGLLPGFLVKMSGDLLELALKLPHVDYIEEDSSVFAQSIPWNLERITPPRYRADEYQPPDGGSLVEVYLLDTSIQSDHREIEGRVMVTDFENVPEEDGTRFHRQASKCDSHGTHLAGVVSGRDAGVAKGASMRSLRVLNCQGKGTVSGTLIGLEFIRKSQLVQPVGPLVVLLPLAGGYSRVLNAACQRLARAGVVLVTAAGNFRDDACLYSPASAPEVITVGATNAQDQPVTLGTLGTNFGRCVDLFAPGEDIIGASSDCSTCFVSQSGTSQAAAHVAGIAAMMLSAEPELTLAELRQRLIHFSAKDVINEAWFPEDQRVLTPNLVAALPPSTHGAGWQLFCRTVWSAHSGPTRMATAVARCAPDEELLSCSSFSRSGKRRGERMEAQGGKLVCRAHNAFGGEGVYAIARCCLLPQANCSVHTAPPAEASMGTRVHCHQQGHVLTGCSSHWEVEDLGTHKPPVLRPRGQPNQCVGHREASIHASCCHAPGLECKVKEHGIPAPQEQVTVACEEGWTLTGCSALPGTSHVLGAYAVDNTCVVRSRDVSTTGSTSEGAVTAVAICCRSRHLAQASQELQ

His-tagged PCSK9Δhelix = biological target: T2, His-tagged PCSK9Δhelix (human, UniProt Q8NBP7 31-152; Q8NBP7 168-692); test: TR-FRET competition (PCSK9Δhelix/Ab20 assay); competitor Ab20
T2 construct: Human PCSK9 M1-Q692 with an engineered TEV site, cut by TEV protease; new N-terminus of the catalytic domain is S-A168; also called His-PCSK9Δhelix; not shown: His tag
T2 sequence (Q8NBP7 31-152, stated change not applied, chain 1 of 2): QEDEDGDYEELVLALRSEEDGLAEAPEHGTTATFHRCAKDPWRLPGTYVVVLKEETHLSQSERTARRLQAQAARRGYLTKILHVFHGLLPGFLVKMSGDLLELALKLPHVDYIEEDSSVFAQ
T2 sequence (Q8NBP7 other isoform, or with tags, fused parts or gaps mutant, chain 2 of 2): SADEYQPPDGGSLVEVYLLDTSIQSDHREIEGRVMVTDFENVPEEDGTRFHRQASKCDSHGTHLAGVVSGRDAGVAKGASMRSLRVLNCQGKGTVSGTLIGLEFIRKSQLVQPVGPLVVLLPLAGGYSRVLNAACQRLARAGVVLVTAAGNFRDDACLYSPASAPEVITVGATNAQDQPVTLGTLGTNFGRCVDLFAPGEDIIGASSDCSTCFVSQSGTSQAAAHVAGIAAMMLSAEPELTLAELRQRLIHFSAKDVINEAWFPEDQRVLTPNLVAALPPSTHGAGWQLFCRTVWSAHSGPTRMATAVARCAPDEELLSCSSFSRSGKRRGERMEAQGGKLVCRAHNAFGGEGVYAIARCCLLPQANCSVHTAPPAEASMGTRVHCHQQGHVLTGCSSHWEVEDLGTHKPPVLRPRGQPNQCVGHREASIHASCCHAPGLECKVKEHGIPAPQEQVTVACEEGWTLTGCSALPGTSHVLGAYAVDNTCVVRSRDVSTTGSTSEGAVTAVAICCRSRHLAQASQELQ

B1: Compound 22 (Ac-GSG-CWNLKRIGSQGC-NH2) (peptide)
peptide: Ac-GSGCWNLKRIGSQGC-NH2
modifications: disulfide 4-15
SMILES: CC[C@H](C)[C@@H]1NC(=O)[C@H](CCCNC(=N)N)NC(=O)[C@H](CCCCN)NC(=O)[C@H](CC(C)C)NC(=O)[C@H](CC(N)=O)NC(=O)[C@H](Cc2c[nH]c3ccccc23)NC(=O)[C@@H](NC(=O)CNC(=O)[C@H](CO)NC(=O)CNC(C)=O)CSSC[C@@H](C(N)=O)NC(=O)CNC(=O)[C@H](CCC(N)=O)NC(=O)[C@H](CO)NC(=O)CNC1=O
[1]
  IC50: 42 µM and > 50 µM

## Ac-SGCRLPWNLQRIGLPC-NH2 (disulfide 3-16) [Compound 30 (Ac-SG-CRLPWNLQRIGLPC-NH2)]
His-tagged PCSK9Δhelix
  IC50: 0.95 µM
[1]
  IC50: > 50 µM

B2: Compound 64 (Ac-DCLWNLKRIGSQCEY-NH2) (peptide)
peptide: Ac-DCLWNLKRIGSQCEY-NH2
modifications: disulfide 2-13
SMILES: CC[C@H](C)[C@@H]1NC(=O)[C@H](CCCNC(=N)N)NC(=O)[C@H](CCCCN)NC(=O)[C@H](CC(C)C)NC(=O)[C@H](CC(N)=O)NC(=O)[C@H](Cc2c[nH]c3ccccc23)NC(=O)[C@H](CC(C)C)NC(=O)[C@@H](NC(=O)[C@H](CC(=O)O)NC(C)=O)CSSC[C@@H](C(=O)N[C@@H](CCC(=O)O)C(=O)N[C@@H](Cc2ccc(O)cc2)C(N)=O)NC(=O)[C@H](CCC(N)=O)NC(=O)[C@H](CO)NC(=O)CNC1=O
[1]
  IC50: > 50 µM

B3: Compound 115 (Ac-CRLPWNLQRI-(Ape)-C-NH2) (peptide)
peptide: Ac-CRLPWNLQRI[Ava]C-NH2
modifications: disulfide 1-12
SMILES: CC[C@H](C)[C@@H]1NC(=O)[C@H](CCCNC(=N)N)NC(=O)[C@H](CCC(N)=O)NC(=O)[C@H](CC(C)C)NC(=O)[C@H](CC(N)=O)NC(=O)[C@H](Cc2c[nH]c3ccccc23)NC(=O)[C@@H]2CCCN2C(=O)[C@H](CC(C)C)NC(=O)[C@H](CCCNC(=N)N)NC(=O)[C@@H](NC(C)=O)CSSC[C@@H](C(N)=O)NC(=O)CCCCNC1=O
[1]
  IC50: > 50 µM

B4: Compound 21 (Ac-CWNLKRIGSQGC-NH2) (peptide)
peptide: Ac-CWNLKRIGSQGC-NH2
modifications: disulfide 1-12
SMILES: CC[C@H](C)[C@@H]1NC(=O)[C@H](CCCNC(=N)N)NC(=O)[C@H](CCCCN)NC(=O)[C@H](CC(C)C)NC(=O)[C@H](CC(N)=O)NC(=O)[C@H](Cc2c[nH]c3ccccc23)NC(=O)[C@@H](NC(C)=O)CSSC[C@@H](C(N)=O)NC(=O)CNC(=O)[C@H](CCC(N)=O)NC(=O)[C@H](CO)NC(=O)CNC1=O
[1]
  IC50: > 50 µM

B5: Compound 36 (Ac-SG-CFIPWNLQ(Cit)IGLPC-NH2) (peptide)
peptide: Ac-SGCFIPWNLQ[Cit]IGLPC-NH2
modifications: disulfide 3-16
SMILES: CC[C@H](C)[C@@H]1NC(=O)[C@H](CCCNC(N)=O)NC(=O)[C@H](CCC(N)=O)NC(=O)[C@H](CC(C)C)NC(=O)[C@H](CC(N)=O)NC(=O)[C@H](Cc2c[nH]c3ccccc23)NC(=O)[C@@H]2CCCN2C(=O)[C@H]([C@@H](C)CC)NC(=O)[C@H](Cc2ccccc2)NC(=O)[C@@H](NC(=O)CNC(=O)[C@H](CO)NC(C)=O)CSSC[C@@H](C(N)=O)NC(=O)[C@@H]2CCCN2C(=O)[C@H](CC(C)C)NC(=O)CNC1=O
[1]
  IC50: > 50 µM

B6: Compound 29 (Ac-SG-CFIPWNLQRIGLLC-NH2) (peptide)
peptide: Ac-SGCFIPWNLQRIGLLC-NH2
modifications: disulfide 3-16
SMILES: CC[C@H](C)[C@@H]1NC(=O)[C@H](CCCNC(=N)N)NC(=O)[C@H](CCC(N)=O)NC(=O)[C@H](CC(C)C)NC(=O)[C@H](CC(N)=O)NC(=O)[C@H](Cc2c[nH]c3ccccc23)NC(=O)[C@@H]2CCCN2C(=O)[C@H]([C@@H](C)CC)NC(=O)[C@H](Cc2ccccc2)NC(=O)[C@@H](NC(=O)CNC(=O)[C@H](CO)NC(C)=O)CSSC[C@@H](C(N)=O)NC(=O)[C@H](CC(C)C)NC(=O)[C@H](CC(C)C)NC(=O)CNC1=O
His-tagged PCSK9Δhelix
  IC50: 1.9 µM
[1]
  IC50: > 50 µM
